The target of series [1] is T1, MMP2 (Homo sapiens, UniProt P08253).
T1 sequence (P08253 110-660): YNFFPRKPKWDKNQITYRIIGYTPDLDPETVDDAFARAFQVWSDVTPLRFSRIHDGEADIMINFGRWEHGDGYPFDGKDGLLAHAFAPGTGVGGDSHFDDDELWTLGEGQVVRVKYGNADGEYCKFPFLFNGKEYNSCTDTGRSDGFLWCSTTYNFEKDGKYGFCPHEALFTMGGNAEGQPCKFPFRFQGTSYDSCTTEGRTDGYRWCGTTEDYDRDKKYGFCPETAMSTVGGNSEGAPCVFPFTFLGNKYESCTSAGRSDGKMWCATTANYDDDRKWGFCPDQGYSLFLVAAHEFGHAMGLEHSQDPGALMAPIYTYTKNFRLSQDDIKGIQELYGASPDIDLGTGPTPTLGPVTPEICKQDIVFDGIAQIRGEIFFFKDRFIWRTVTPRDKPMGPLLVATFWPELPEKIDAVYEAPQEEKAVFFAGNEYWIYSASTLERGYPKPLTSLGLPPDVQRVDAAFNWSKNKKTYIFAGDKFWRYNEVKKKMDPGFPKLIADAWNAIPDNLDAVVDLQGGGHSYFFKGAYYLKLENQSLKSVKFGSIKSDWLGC
In words: In vitro cleavability of activatable antibodies, capillary electrophoresis. Type of series: biochemical. On the set-up: purchased R&D Systems 902-MP.

Series [2] addresses recombinant EGFR (Homo sapiens, UniProt P00533). The experiment in a line: Solid-phase binding assay (ELISA) of anti-EGFR activatable antibodies. Conditions: compared to activatable antibodies with control CM 2001.
Series [3] has as its target T2, MT-SP1 (Homo sapiens, UniProt Q9Y5Y6).
T2 sequence (Q9Y5Y6 615-855 limits assumed): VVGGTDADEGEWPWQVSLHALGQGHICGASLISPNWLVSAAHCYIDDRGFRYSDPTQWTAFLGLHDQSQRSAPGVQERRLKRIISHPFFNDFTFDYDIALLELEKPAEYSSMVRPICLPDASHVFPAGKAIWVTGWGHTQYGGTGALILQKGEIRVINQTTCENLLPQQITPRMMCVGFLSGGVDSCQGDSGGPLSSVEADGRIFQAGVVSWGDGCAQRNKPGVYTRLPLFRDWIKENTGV
In words: In vitro cleavability of activatable antibodies, capillary electrophoresis. On the set-up: purchased R&D Systems 3946-SEB. Type of series: biochemical. The protocol: The studies provided herein evaluate the in vitro cleavability of activatable antibodies containing exemplary CMs that include a substrate cleavable by a matrix metalloprotease (MMP) and/or a substrate cleavable by a matriptase (MT-SP1).
Each activatable antibody (500 nM) was incubated with 10 nM of the indicated single protease for 4 hours at 37° C. Human recombinant proteases were purchased from R&D Systems: MT-SP1 (catalog No: 3946-SEB), MMP2 (catalog No: 902-MP), MMP9 (catalog No: 911-MP), and MMP14 (catalog No: 918-MP). […] Protease concentrations were determined by active site titration. Activity assays were performed in the following buffers: 50 mM TRIS-HCl (pH 7.4), 150 mM NaCl, 0.05% Tween 20 for MT-SP1, 50 mM Tris-HCl, 10 mM CaCl2), 150 mM NaCl, 0.05% (w/v) Brij-35, pH 7.5 for MMP2 and MMP9, and 50 mM HEPES (pH 6.8), 10 mM CaCl2), 0.5 mM MgCl2 for MMP14. Following incubation, the presence of cleavage product was determined by capillary electrophoresis for each protease enzyme using a LabChip GXII Touch system (Perkin Elmer) with the HT Protein Express 100 protocol (Perkin Elmer). LabChip GXII Touch HT Chips (Perkin Elmer #760499) were set up using the protocol of the Protein Express Assay Reagent Kit (Perkin Elmer #CLS960008).

The conditions of series [4]: mouse.
The target of series [5] is MMP9 (Homo sapiens, UniProt P14780). The experiment in a line: In vitro cleavability of activatable antibodies, capillary electrophoresis. Type of series: biochemical. On the set-up: purchased R&D Systems 911-MP.
Setting [6] is: 500 nM activatable antibody, 10 nM protease, 4 hours at 37° C.
The mark [7] stands for this setting: Tables 6A-6C, activatable antibody format.

MMP9, sequence (P14780 107-707 limits assumed): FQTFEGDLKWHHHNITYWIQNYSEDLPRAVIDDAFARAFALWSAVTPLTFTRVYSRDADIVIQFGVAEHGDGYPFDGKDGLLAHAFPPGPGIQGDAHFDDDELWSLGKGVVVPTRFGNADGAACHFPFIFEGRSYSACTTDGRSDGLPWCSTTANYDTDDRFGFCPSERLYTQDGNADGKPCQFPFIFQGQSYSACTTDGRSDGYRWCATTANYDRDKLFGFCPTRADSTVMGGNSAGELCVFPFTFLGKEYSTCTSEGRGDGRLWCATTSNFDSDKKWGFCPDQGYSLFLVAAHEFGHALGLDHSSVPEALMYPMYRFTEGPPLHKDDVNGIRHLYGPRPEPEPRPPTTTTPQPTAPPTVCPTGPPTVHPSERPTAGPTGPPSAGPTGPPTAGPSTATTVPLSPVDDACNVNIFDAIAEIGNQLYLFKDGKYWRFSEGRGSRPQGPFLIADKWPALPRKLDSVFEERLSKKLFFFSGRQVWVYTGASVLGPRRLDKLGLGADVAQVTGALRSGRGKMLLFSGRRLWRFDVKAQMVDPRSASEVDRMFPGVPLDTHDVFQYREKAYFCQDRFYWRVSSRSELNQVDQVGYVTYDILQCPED

Regarding “APMGLKH [CM 7046, also tested as internally quenched peptide probe]”, the “Cleavability (%) 4h MMP2” value in series [1] (setting [6]) amounted to 95.7%. In addition, the “percent activation for MMP2” value in series [1] (setting [7]) is “greater than 90%”. Further, in series [2], the “effect of CM on apparent masking efficiency” value was “increasing the apparent masking efficiency”. The “Cleavability (%) 4h MT-SP1” value in series [3] amounted to 5.37%. Further, the “in vivo stability versus control CMs” value in series [4] is listed as “higher in vivo stability”. In addition, the “Cleavability (%) 4h MMP9” value in series [5] (setting [6]) is 45.1%. Also, in series [5] (setting [7]), the “percent activation for MMP9” value was “greater than 30%”.

For the origin of these results see patent US20260042849A1, “PROTEASE-CLEAVABLE MOIETIES AND METHODS OF USE THEREOF” (CytomX Therapeutics, Inc., priority 2022, published 2026).
